# Data reported in article PMC6761149.
# Target: Q8DLC1
# Assay: SAXS; ESRF BM29, 10 °C, 20 mM Tris/HCl pH 7.5, 500 mM NaCl, 20% (v/v) glycerol; dark holoprotein (NADPH, Pchlide) at 0.65 mg ml^-1; monomer content from I(0)
# Details: other: SAXS
protein,measurement,value
light-dependent protochlorophyllide oxidoreductase of Thermosynechococcus elongatus BP-1 (TeLPOR) (protein) MSDQPRPTVIITGASSGVGLYATKALANRGWHVIMACRNLEKAEQAAKNLQIPPEAYTILHLDLSSLASVRGFVESFRALNRPLRALVCNAAVYYPLLKEPIYSVDGYEITVATNHLGHFLLINLLLEDLKNSPESDKRLVILGTVTANRKELGGKIPIPAPPDLGNLEGFEKGFKKPIAMINGKPFKSGKAYKDSKLCNMLTARELHRRFHESTGIVFNSLYPGCVADTPLFRHHFPLFQKLFPLFQKKITGGYVSQELAGERVAMVVADPEFRQSGVHWSWGNRQKEGRKAFVQELSAEASDEQKARRLWELSEKLVGLA,"monomer content from I(0), with NADPH and Pchlide",monomer content from I(0): 85.9%
